Experimental data reported in patent US6051559.

Target: T1, dCREB2-a (Drosophila melanogaster) (UniProt Q9VWW0)
T1 sequence: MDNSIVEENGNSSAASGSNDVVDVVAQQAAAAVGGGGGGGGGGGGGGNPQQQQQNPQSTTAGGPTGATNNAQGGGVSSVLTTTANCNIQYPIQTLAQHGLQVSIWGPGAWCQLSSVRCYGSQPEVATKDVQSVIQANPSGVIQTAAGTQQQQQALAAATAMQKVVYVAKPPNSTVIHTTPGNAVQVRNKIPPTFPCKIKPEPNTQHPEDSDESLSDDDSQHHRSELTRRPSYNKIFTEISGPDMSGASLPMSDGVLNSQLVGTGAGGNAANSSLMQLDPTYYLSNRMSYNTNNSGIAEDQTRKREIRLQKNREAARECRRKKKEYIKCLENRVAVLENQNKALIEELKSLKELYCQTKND
Assay: cell_activity
Settings: F9 cells, with PKA versus PKA alone

## D(-71) CAT reporter CRE fragment
  activity: 5.4 fold
